From the RNAGym collection of RNA variant scans (doi:10.7554/elife.80360)

B1: CPEB3 Ribozyme (parent)
chain: GGGGGCCACAGCAGAAGCGUUCACGUCGCGGCCCCUGUCAGAUUCUGGUGAAUCUGCGAAUUCUGCUGU

Variants of: B1
Experiment: self-cleavage, relative activity (ratio to wild type); higher = more cleavage; co-transcriptional

Variant	self-cleavage
GGGGGCCACAGCAGAAGCGUUCACGUCGCGGCCCCUGUCAGAUUCUGGUGAAUCUGCGAAUACUGCUGC	1.09
GGGGGCCACAGCAGAAGCGUUCACGUCGCGGCCCCUGUCAGAUUCUGGUGAAUCUGCGAAUGCUGCUCU	0.866
GGGGGCCACAGCAGAAGCGUUCACGUCGCGGCCCCUGUCAGAUUCUGGUGAAUCUGCGAAUUCUUCUUU	0.681
GGGGGCCACAGCAGAAGCGUUCACGUCGCGGCCCCUGUCAGAUUCUGGUGAAUCUGCGAAUUCUUCUAU	0.919
GGGGGCCACAGCAGAAGCGUUCACGUCGCGGCCCCUGUCAGAUUCUGGUGAAUCUGCGAAUUCCGCUGU	0.941
GGGGGCCACAGCAGAAGCGUUCACGUCGCGGCCCCUGUCAGAUUCUGGUGAAUCUGCGAAUUCGGCUGU	0.952
GGGGGCCACAGCAGAAGCGUUCACGUCGCGGCCCCUGUCAGAUUCUGGUGAAUCUGCGAAUUCAGCUGU	0.963
GGGGGCCACAGCAGAAGCGUUCACGUCGCGGCCCCUGUCAGAUUCUGGUGAAUCUGCGAAUUAUCCUGU	0.491
GGGGGCCACAGCAGAAGCGUUCACGUCGCGGCCCCUGUCAGAUUCUGGUGAAUCUGCGAAUUUUACUGU	0.672
GGGGGCCACAGCAGAAGCGUUCACGUCGCGGCCCCUGUCAGAUUCUGGUGAAUCUGCGAAUUUUCCUGU	0.419
GGGGGCCACAGCAGAAGCGUUCACGUCGCGGCCCCUGUCAGAUUCUGGUGAAUCUGCGAAUUUUUCUGU	0.772
GGGGGCCACAGCAGAAGCGUUCACGUCGCGGCCCCUGUCAGAUUCUGGUGAAUCUGCGAAUACUCCUGU	0.413
GGGGGCCACAGCAGAAGCGUUCACGUCGCGGCCCCUGUCAGAUUCUGGUGAAUCUGCGAAUACUUCUGU	0.717
GGGGGCCACAGCAGAAGCGUUCACGUCGCGGCCCCUGUCAGAUUCUGGUGAAUCUGCGAAUGCUUCUGU	0.455
GGGGGCCACAGCAGAAGCGUUCACGUCGCGGCCCCUGUCAGAUUCUGGUGAAUCUGCGAAUUCUGACGU	0.925
GGGGGCCACAGCAGAAGCGUUCACGUCGCGGCCCCUGUCAGAUUCUGGUGAAUCUGCGAAUUCGGAUGU	0.422
GGGGGCCACAGCAGAAGCGUUCACGUCGCGGCCCCUGUCAGAUUCUGGUGAAUCUGCGAAUUAGGCUGU	0.783
GGGGGCCACAGCAGAAGCGUUCACGUCGCGGCCCCUGUCAGAUUCUGGUGAAUCUGCGAAUGCUGCGGU	0.841
GGGGGCCACAGCAGAAGCGUUCACGUCGCGGCCCCUGUCAGAUUCUGGUGAAUCUGCGAAUGCUGCCGU	0.684
GGGGGCCACAGCAGAAGCGUUCACGUCGCGGCCCCUGUCAGAUUCUGGUGAAUCUGCGAAUUCAGCUGC	1.05
GGGGGCCACAGCAGAAGCGUUCACGUCGCGGCCCCUGUCAGAUUCUGGUGAAUCUGCGAAUUCAGCUGG	0.988
GGGGGCCACAGCAGAAGCGUUCACGUCGCGGCCCCUGUCAGAUUCUGGUGAAUCUGCGAAUUCAGCUGA	0.964
GGGGGCCACAGCAGAAGCGUUCACGUCGCGGCCCCUGUCAGAUUCUGGUGAAUCUGCGAAUUCCGCUGG	1
GGGGGCCACAGCAGAAGCGUUCACGUCGCGGCCCCUGUCAGAUUCUGGUGAAUCUGCGAAUUCCGCUGA	0.972
GGGGGCCACAGCAGAAGCGUUCACGUCGCGGCCCCUGUCAGAUUCUGGUGAAUCUGCGAAUUCUUCUGG	0.94
GGGGGCCACAGCAGAAGCGUUCACGUCGCGGCCCCUGUCAGAUUCUGGUGAAUCUGCGAAUCCUGGUGU	0.567

Variant	self-cleavage
GGGGGCCACAGCAGAAGCGUUCACGUCGCGGCCCCUGUCAGAUUCUGGUGAAUCUGCGAAUCCUGUUGU	0.654
GGGGGCCACAGCAGAAGCGUUCACGUCGCGGCCCCUGUCAGAUUCUGGUGAAUCUGCGAAUUCCGCGGU	0.824
GGGGGCCACAGCAGAAGCGUUCACGUCGCGGCCCCUGUCAGAUUCUGGUGAAUCUGCGAAUACGGCUGU	0.622
GGGGGCCACAGCAGAAGCGUUCACGUCGCGGCCCCUGUCAGAUUCUGGUGAAUCUGCGAAUUCCGCUUU	0.803
GGGGGCCACAGCAGAAGCGUUCACGUCGCGGCCCCUGUCAGAUUCUGGUGAAUCUGCGAAUUCCUCUGU	0.699
GGGGGCCACAGCAGAAGCGUUCACGUCGCGGCCCCUGUCAGAUUCUGGUGAAUCUGCGAAUGCUGGUGU	0.442
GGGGGCCACAGCAGAAGCGUUCACGUCGCGGCCCCUGUCAGAUUCUGGUGAAUCUGCGAAUUCUCCUGG	0.862
GGGGGCCACAGCAGAAGCGUUCACGUCGCGGCCCCUGUCAGAUUCUGGUGAAUCUGCGAAUUCUCCUGC	1.05
GGGGGCCACAGCAGAAGCGUUCACGUCGCGGCCCCUGUCAGAUUCUGGUGAAUCUGCGAAUUUUGCUCU	0.972
GGGGGCCACAGCAGAAGCGUUCACGUCGCGGCCCCUGUCAGAUUCUGGUGAAUCUGCGAAUUUUGCUUU	0.968
GGGGGCCACAGCAGAAGCGUUCACGUCGCGGCCCCUGUCAGAUUCUGGUGAAUCUGCGAAUUCAGCUAU	0.99
GGGGGCCACAGCAGAAGCGUUCACGUCGCGGCCCCUGUCAGAUUCUGGUGAAUCUGCGAAUUCUCCUUU	0.406
GGGGGCCACAGCAGAAGCGUUCACGUCGCGGCCCCUGUCAGAUUCUGGUGAAUCUGCGAAUUCUCCUCU	0.633
GGGGGCCACAGCAGAAGCGUUCACGUCGCGGCCCCUGUCAGAUUCUGGUGAAUCUGCGAAUUUUGCUGC	1.06
GGGGGCCACAGCAGAAGCGUUCACGUCGCGGCCCCUGUCAGAUUCUGGUGAAUCUGCGAAUUUCGCUGU	0.836
GGGGGCCACAGCAGAAGCGUUCACGUCGCGGCCCCUGUCAGAUUCUGGUGAAUCUGCGAAUUUAGCUGU	0.73
GGGGGCCACAGCAGAAGCGUUCACGUCGCGGCCCCUGUCAGAUUCUGGUGAAUCUGCGAAUUUUGGUGU	0.456
GGGGGCCACAGCAGAAGCGUUCACGUCGCGGCCCCUGUCAGAUUCUGGUGAAUCUGCGAAUUAUGAUGU	0.304
GGGGGCCACAGCAGAAGCGUUCACGUCGCGGCCCCUGUCAGAUUCUGGUGAAUCUGCGAAUUAUGGUGU	0.402
GGGGGCCACAGCAGAAGCGUUCACGUCGCGGCCCCUGUCAGAUUCUGGUGAAUCUGCGAAUUAUGUUGU	0.619
GGGGGCCACAGCAGAAGCGUUCACGUCGCGGCCCCUGUCAGAUUCUGGUGAAUCUGCGAAUUGUACUGU	0.461
GGGGGCCACAGCAGAAGCGUUCACGUCGCGGCCCCUGUCAGAUUCUGGUGAAUCUGCGAAUUGUUCUGU	0.525
GGGGGCCACAGCAGAAGCGUUCACGUCGCGGCCCCUGUCAGAUUCUGGUGAAUCUGCGAAUUCCGAUGU	0.435
GGGGGCCACAGCAGAAGCGUUCACGUCGCGGCCCCUGUCAGAUUCUGGUGAAUCUGCGAAUACUGCUUU	0.964
GGGGGCCACAGCAGAAGCGUUCACGUCGCGGCCCCUGUCAGAUUCUGGUGAAUCUGCGAAUUCGUCUGU	0.672
GGGGGCCACAGCAGAAGCGUUCACGUCGCGGCCCCUGUCAGAUUCUGGUGAAUCUGCGAAUUCUACUGA	0.932

Variant	self-cleavage
GGGGGCCACAGCAGAAGCGUUCACGUCGCGGCCCCUGUCAGAUUCUGGUGAAUCUGCGAAUUCUACUGC	1.05
GGGGGCCACAGCAGAAGCGUUCACGUCGCGGCCCCUGUCAGAUUCUGGUGAAUCUGCGAAUUGUGCAGU	0.614
GGGGGCCACAGCAGAAGCGUUCACGUCGCGGCCCCUGUCAGAUUCUGGUGAAUCUGCGAAUUCUCAUGU	0.788
GGGGGCCACAGCAGAAGCGUUCACGUCGCGGCCCCUGUCAGAUUCUGGUGAAUCUGCGAAUCCUACUGU	0.479
GGGGGCCACAGCAGAAGCGUUCACGUCGCGGCCCCUGUCAGAUUCUGGUGAAUCUGCGAAUCCUUCUGU	0.531
GGGGGCCACAGCAGAAGCGUUCACGUCGCGGCCCCUGUCAGAUUCUGGUGAAUCUGCGAAUUGAGCUGU	0.689
GGGGGCCACAGCAGAAGCGUUCACGUCGCGGCCCCUGUCAGAUUCUGGUGAAUCUGCGAAUUGCGCUGU	0.407
GGGGGCCACAGCAGAAGCGUUCACGUCGCGGCCCCUGUCAGAUUCUGGUGAAUCUGCGAAUAUUGCUGU	0.705
GGGGGCCACAGCAGAAGCGUUCACGUCGCGGCCCCUGUCAGAUUCUGGUGAAUCUGCGAAUUCUGAUGC	1.04
GGGGGCCACAGCAGAAGCGUUCACGUCGCGGCCCCUGUCAGAUUCUGGUGAAUCUGCGAAUUCACCUGU	0.39
GGGGGCCACAGCAGAAGCGUUCACGUCGCGGCCCCUGUCAGAUUCUGGUGAAUCUGCGAAUUCAUCUGU	0.827
GGGGGCCACAGCAGAAGCGUUCACGUCGCGGCCCCUGUCAGAUUCUGGUGAAUCUGCGAAUUCGGCCGU	0.788
GGGGGCCACAGCAGAAGCGUUCACGUCGCGGCCCCUGUCAGAUUCUGGUGAAUCUGCGAAUUCGGCGGU	0.769
GGGGGCCACAGCAGAAGCGUUCACGUCGCGGCCCCUGUCAGAUUCUGGUGAAUCUGCGAAUUCGGCAGU	0.88
GGGGGCCACAGCAGAAGCGUUCACGUCGCGGCCCCUGUCAGAUUCUGGUGAAUCUGCGAAUUCUGAUAU	0.87
GGGGGCCACAGCAGAAGCGUUCACGUCGCGGCCCCUGUCAGAUUCUGGUGAAUCUGCGAAUUCAGCCGU	0.83
GGGGGCCACAGCAGAAGCGUUCACGUCGCGGCCCCUGUCAGAUUCUGGUGAAUCUGCGAAUUCUCCAGU	0.589
GGGGGCCACAGCAGAAGCGUUCACGUCGCGGCCCCUGUCAGAUUCUGGUGAAUCUGCGAAUUGUGCUCU	0.706
GGGGGCCACAGCAGAAGCGUUCACGUCGCGGCCCCUGUCAGAUUCUGGUGAAUCUGCGAAUUGUGCUGG	0.921
GGGGGCCACAGCAGAAGCGUUCACGUCGCGGCCCCUGUCAGAUUCUGGUGAAUCUGCGAAUGCAGCUGU	0.49
GGGGGCCACAGCAGAAGCGUUCACGUCGCGGCCCCUGUCAGAUUCUGGUGAAUCUGCGAAUGCCGCUGU	0.502
GGGGGCCACAGCAGAAGCGUUCACGUCGCGGCCCCUGUCAGAUUCUGGUGAAUCUGCGAAUCAUGCUGU	0.753
GGGGGCCACAGCAGAAGCGUUCACGUCGCGGCCCCUGUCAGAUUCUGGUGAAUCUGCGAAUACUGUUGU	0.737
GGGGGCCACAGCAGAAGCGUUCACGUCGCGGCCCCUGUCAGAUUCUGGUGAAUCUGCGAAUACUGCGGU	0.918
GGGGGCCACAGCAGAAGCGUUCACGUCGCGGCCCCUGUCAGAUUCUGGUGAAUCUGCGAAUUUUGCAGU	0.94
GGGGGCCACAGCAGAAGCGUUCACGUCGCGGCCCCUGUCAGAUUCUGGUGAAUCUGCGAAUUCUAAUGU	0.75
